Assay [1] deals with FlhF-His6 (Vibrio alginolyticus FlhF with a C-terminal His6 tag) (V. alginolyticus).
Assay [2] has the same target. Description: SEC; purified FlhF kept on ice 10 min with 1 mM GTP; SuperDex 75 Increase in 20 mM Tris-HCl pH 8.0, 300 mM NaCl, 10 mM MgCl2, 1 mM GTP; fractions blotted with anti-FlhF antibody.

Turning to “His-tagged FlhG (his6-tev-flhG in pTrcHisB) (enzyme)”, the GTPase activity of FlhF: inorganic phosphate released in 30 min by 1 μM FlhF mixed with 1 μM FlhG (FlhF alone 5.3 μM; background sample 4.3 μM) in assay [1] worked out at 8.5 µM.

In the case of “FlhF-His6 (Vibrio alginolyticus FlhF with a C-terminal His6 tag) (enzyme)”, the stoichiometry N – broadly, a count of units in the complex or per binding partner – in assay [2] turned out to be 2.
